This data set can be described thus: yeast display, Sf9 membrane polyspecificity reagent, FACS + sequencing; frameworks hold sequencing errors. Summed up:
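A synthetic nanobody library was expressed on Saccharomyces cerevisiae BJ5465 by galactose induction for 36–48 hours. The library was stained for 1 hour at 4 °C with 10% biotinylated, detergent-solubilized Sf9 membrane reagent and enriched with streptavidin microbeads before FACS. Low and high (top ~1%) gates were set on anti-HA fluorescence for expression and streptavidin fluorescence for reagent binding, and each polyreactivity label reflects the gate of origin.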
As to “QVQLVESGGGLVQAGGSLRLSCAASGSIFRWYAMGWYRQAPGKERELVAAISYSGGSTYYADSVKGRFTISRDNAKNTVYLQMNSLKPEDTAVYYCARLGWKPITAARDYWGQVTQVTVSS”, the “polyreactivity (PSR sort gate)” value is listed as “high polyreactivity”.

On to “QVKLVDSGGGLVQAGGSLRLSCAASGRTFRYYTMGWYRQAPGTERELVAAITRNVGRTYYADSVKGRFTISRDNAKNTVYLQMNSLKPEDTAVYYCAAGTYDGGYHYDYWGQGTQLTVSS”, for which the “polyreactivity (PSR sort gate)” value was “high polyreactivity”.

For “QVQLVESGGGLVQAGGSLRLSCADSGRTFGVYTMGWYRQAPGKERELVAAISGSGGSTYYADSVKGRFTISRDNAKNTVYLQMNSLKPEDTAVYYCNADQNVDVFYRYRLYDSWGQGTQVTVSS”, the “polyreactivity (PSR sort gate)” value is recorded as “high polyreactivity”.

For “QVQLVESGGGLVQAGGSLRLSCAASGRIFGKYVMVWYRQEPGKERELVAGISWSAGSTYYADSVKGRFTISRDTAKNTVYLQMNSLKPEDSAVYSCAAGLEGGYDYWGQGTEVTVSS”, the “polyreactivity (PSR sort gate)” value was “low polyreactivity”.

With “QVQLVESGGGLVQAGGSLRLSCAASGFTFGYYAMGWYRQAPGKEREFVARISWSGDSTYYADSVKGRFTISRDNAKNTVYLQMNSLKPEDTSVYYCAAVVQTSWGKWNDYWGPGTQVTVSS”, the “polyreactivity (PSR sort gate)” value is recorded as “high polyreactivity”.

Regarding “QVQLVESGGGLVQAGGSLRLSCASSGRTFYIYAIGWYRQAAGKERELVASISRGGSTTYADSVKGRFTISRDNAKNTVYLQMNSLKPEDTAVYYCNARAYYDMNQWGQGTQVTVSS”, the “polyreactivity (PSR sort gate)” value is “low polyreactivity”.

Regarding “QVQLVESGGGLVQAGGSLRLSCAASGITFYKYVMGWYRQAPGKERELVARISKGGGSTYYADSVKGRFTISRDYAKNTVYLQMNSLKPEDTAVYYCNARGGYYVRSSAEYDYWGQGTQVTVSS”, the “polyreactivity (PSR sort gate)” value is on record as “high polyreactivity”.

In the case of “QVQLVESGGGLVQAGGSLRLSCAASGFIFSRYDMGWYRQAPGKERELVAAIDWSGDSTYYADSVKGRFTISRDNAKHTVYLQMNSLQPEDTAVYYCAAYYYWGQGTQVTVSS”, the “polyreactivity (PSR sort gate)” value is reported as “low polyreactivity”.

Take “QVQLVESGGGLVQAGGSLRLICAASGTIFDIYAMGWYRQAPGKERELVAAISLSAGSTYYADSVKGRFTISRDNAKNTVYLQMNSLKPEDTAGYYFNADGWYGYWGQGTQVTVSS”: the “polyreactivity (PSR sort gate)” value is reported as “low polyreactivity”.

On to “QVQLVESGGGLVQSGGSLRLSCAASVRIFGPYVMGWYRQAPGKERELVAAISTSGTSTYDADSVKGRFTISRDNAKNTVYLQMNSLKPEDTAVYYCAKRSGALHRLMDYWGQGTQVTVSS”, for which the “polyreactivity (PSR sort gate)” value is given as “low polyreactivity”.

With “QVQLVESGGGLVQAGGSLRLSCAASGSTFLKYAMGWYKHAPWKERELVAAITYRGGTTYYADSVKGRFTISRDNAKNSVYFQMNSLKPVDTAVYYCNARRDYDMDWGQGTLVTVSS”, the “polyreactivity (PSR sort gate)” value is reported as “high polyreactivity”.

On to “QVQLVESGGGLVQAGGSLRLSCAASGFTFPIYAMGLSRQAPGKERELVAAITTPGGRTYYADSVKGRFTISRDNAKNPVYLQLNSLKPEDTAVYYCNAQGYAYRLWFGYWGQGTQVTVSS”, for which the “polyreactivity (PSR sort gate)” value is “high polyreactivity”.

Turning to “QVQLVESGGGLVQAGGSLRLSCAASGIIFIYYDMGWYRQAPGKERELVAAISRSGGSTYYADSVKGRFTISRDIAKNTFYLQMNSLKPEDTAVYYCAARRITSTDEYYWGHGTQVTVSS”, the “polyreactivity (PSR sort gate)” value is given as “high polyreactivity”.

For the sequence “QVQLVESGGGLVQAGGSLRLSCAASGSIFDNAMGWYRQAPGKERELVASIDQSGGSTYYADSVKGRFTISRDNAKNTVYLQMNSLKPEDTAVYYCAADSFTGYPYEMDYWGQGTQVTVSS”, the “polyreactivity (PSR sort gate)” value is recorded as “low polyreactivity”.

For “QDQLVESGGGLVQAGGSLRLSCAASGNIFWSNAMGWYRQAPVKERELVAGIRSTGGSTYYADSVKGRFTISRDNAKNTVYLQMNSLKPEDTAVYYCAAEHWYSTPWWTDDYWGQGTQVTLSS”, the “polyreactivity (PSR sort gate)” value is recorded as “high polyreactivity”.

For “QVQLVESGGGLVQAGGSLRLSCAASGFTFVKYAMGWYRQAPGKERELVAVISRRGGSTYYADSVKGRFTISRDNAKNTVYLQMNSLKPEDTAVYYCAAKVALPRTQEWEYGYWGQGTQVTVSS”, the “polyreactivity (PSR sort gate)” value is “high polyreactivity”.

Take “QVQLVESGGGLVHAGGSLRLSCAASGRIFRIYAMGWYRQAPGKERELVAAISRGGRTNYADSVKGRFTISRDNAKNTVYLQMNSLKPEDTAVYYCNATSNWGPTKVRFNYWGQGTQVTVSS”: the “polyreactivity (PSR sort gate)” value was “high polyreactivity”.

For the sequence “QVQLVESGGGLVQAGGSLRLSCAASGSTFTLYAMGWYRQAPGQERELVAAIRRGGSTNYADSVKGRFTISRDNAKNPVYLQMNSLKPEDTAVYYSAADTYTSRSRYSGSGGYDYWGQGTQVTVSS”, the “polyreactivity (PSR sort gate)” value is listed as “low polyreactivity”.

As for “QVQLVESGGGLVQAGGSLRLSCAASGLIFRGYAMGWYIQAPGKERELVAAISKSGGSTYYADSVKGRFTISRDNAKNTVYLQMNSLKPEDTAVYYCNTDYDWKYFLSSQYDYWGQGTQVTVSS”, the “polyreactivity (PSR sort gate)” value is “high polyreactivity”.

With “QVQLEESGGGLVQAGGSLRLSCAASGSIFGFYMGWDRQAPRKEREMVAAISGSGGNTYYADSVKGRFTISRDNAKNTVYLQMNSQKPEDNAVYYCAARGYVWNIGRYYWGQGTQVTVSW”, the “polyreactivity (PSR sort gate)” value is “high polyreactivity”.

Regarding “QVQLVESGGGLVQAGGSLRLSCAASGRTLARNAMGWYRQAPGKERELVASINGRTTRTYYADSVKGRFTISRDNAKNTVYFQMNSLKPEDPAVYYCAADPPGYVYGKRYYWGQGTQVTVSS”, the “polyreactivity (PSR sort gate)” value is on record as “high polyreactivity”.

Regarding “QVQLVESGGRLVQAGGSLRLSCAASGLTLFRYAKGWYRTAPGKERELVAAIDYGGGTYYADSVKGRFTISRDNAKNTVYLQMNSLKPEDTAVYYCAVEPEYKYYEGDYWGQGTQVTVSS”, the “polyreactivity (PSR sort gate)” value was “low polyreactivity”.

Regarding “QVQLVESGGGLVQAGGSLRLSCAASGITFGRYAMGWYRQAPGKERELVAAISSRTGRTYYADSVKGRFTISRDNAKNTVYLQMNSLKPEDTAVYYCARDSKLSASYDRDDSWGQGTQVTVSS”, the “polyreactivity (PSR sort gate)” value is recorded as “high polyreactivity”.

In the case of “QVQLVESGGGLVQAGGSLRLSCAASGIILHYYAMGSYRQAPGKERELVAAISARGGRTYYADSVKGRFTISRDNAKNTVYLQMNSLKPEDTAVYYCARYLRRSSPSPGYGYWGQGTQVTVSS”, the “polyreactivity (PSR sort gate)” value is given as “high polyreactivity”.

As to “QVQLVESGGGVVQAGGSLRLSCAASGRIFYYNARGWYRQAPGKERELVAVISRNGGRTYYADSVKGRFTISRDNAKITVYLQMNSLKPEDTAVYYCAARSAGDRYDYWGQGTQVTVSS”, the “polyreactivity (PSR sort gate)” value is on record as “high polyreactivity”.

For the sequence “QVQLVESGGGLVQAGGSLRLSCAASGITFHPYALGWYRQAPGKERELVARIRSTGSTNYADSVKGRFTISRDNAKNTVYLQMNSLKPEDTAVYYCAATFRTGWRPYSFYYWGQGTQVTVSS”, the “polyreactivity (PSR sort gate)” value is “high polyreactivity”.

Regarding “QVQLVESGGGLVQAGGSLRLSCAASGRIFLRYTMGWYRQAPGKDRELVAAISGGGSTNYADSVKGRFTISRDNAKNTVYLQMNSLKPEDTAVYYCAADYIWLSHPYRRVDFYYWGQGTQVTVSS”, the “polyreactivity (PSR sort gate)” value is reported as “low polyreactivity”.

For the sequence “QVQLVESGGGLVQAGGSLRLSCAASGSIFVLNAMGWYRQAPGKERELGAAITNVGSTYYADSVKGRFTISRDNAKNTVYLQMNSLKPEDTAVYYCNAVLAPGGYDYWGQGTQVTVSS”, the “polyreactivity (PSR sort gate)” value is “low polyreactivity”.

As to “QVQLLESGGGLVQAGGSLRLSCAASGRTFSGYAMGWYRQAPGKERELVAAISESGDGTYYADSVKGRFTISRDNAKNTVYLQMNSLKPEDTAVYYCAADGTLFSEYYWFFGYHDYWGQGTQVTVSS”, the “polyreactivity (PSR sort gate)” value is given as “high polyreactivity”.

On to “QVQLVESGGGLVQAGGSLRLSCAASGRTFSPYAMGWYRQAPGKERELVAAITSRGASTYYADSVKGRFTISRDNAKNTVYLQMNSLKPEDTAVYYCNSGRTYRRLGDYWGQGTQVTVSS”, for which the “polyreactivity (PSR sort gate)” value is listed as “high polyreactivity”.

With “QVQLVESGGGLVQAGGSLRLSCAASGSIFIRNAMGWYRQAPGKERELVAAISTIGGRTYYADSVKGRFTISRDNAKNTVYLQMNSLNPEDTAVYYCAAEQGTPSTNWYDYWGQGTQVTVSS”, the “polyreactivity (PSR sort gate)” value is given as “low polyreactivity”.

“QVQLVESGGGLVQAGVSLRLSCAASARIFSGYAMGWYRQAPGKEREFVAAITSSGRTKYADSVKGRFTISRDNATNTVYLQMNSLKPEDTAVYYCAAYFGYDWPEYDYWRQGTQVTVSS”: the “polyreactivity (PSR sort gate)” value is listed as “high polyreactivity”.

For “QVQLVESGGGLVQAGGSLRLSCAASGSTFYYYAMGWYRQAPGKERELVATISSGSSTNYADSVKGRFTISRDNAKNTVYLQMNSLKPEDTAVYYCATDGDPAYPEMEYWGQGTQVTVSS”, the “polyreactivity (PSR sort gate)” value was “low polyreactivity”.

Take “QVQLVESGGGLVHAGGSLRLSCAASGSTFQLNAMGWYRQAPGKERELVAAISTRGGSTYYADSLKGRFTISRDNAKNTVYLQMNSLKPEDTAVYYCAARLYTRRDYWGQATQVTVSS”: the “polyreactivity (PSR sort gate)” value is “high polyreactivity”.

For the sequence “QVQLVESGGGLVQEGGSLRLSCAASGNTFKYYSMGWYRQAPGKERELVAAITWNGARTYYADSVKGRFTISRDNAKNTVYLQMNSLKPEDTAVYYCNARQGYRFDYWGQGTQVTVSS”, the “polyreactivity (PSR sort gate)” value was “high polyreactivity”.

Take “QVQLVESGGGLVQAGGSLRLSCAASGSIFVPNTMGWYRQAPGKERELVAVISRSGGSTNYADSVKGRFTISRDNAKNTVYLQMNSLKPEDTAVYYCNADDGYSVWGYDYWGQGTQVTVSS”: the “polyreactivity (PSR sort gate)” value is given as “low polyreactivity”.

“QVQLVESGGGLVQAGGSLRLSCAASGFILQGYAMGWYRQAPGKERELVATITTSSRTYYADSVKGRFTISRDNAKNTVYLQMNRLKPEDTAVYYCDKSVYPYGYYYGQMDYWGQGTQVTVSS”: the “polyreactivity (PSR sort gate)” value was “high polyreactivity”.

In the case of “QVQLVESGGGLVQAGGSLRLSCAASGSTIGWNAMGWYRQAPRKERELVAAISSSGGITYYADSVKGRYTISRDTAKNTVYLQMNSLKPDDTAVYDCAAEGDDDWVNYWGHGTQVTVSS”, the “polyreactivity (PSR sort gate)” value is recorded as “low polyreactivity”.

For “QVQLQESGGGLVQAGGSLRLSCAASGTIFRFRYMGWHRQAPGKERELVAGINGGTTTYYADSVIGRFTISRDNAKNTVYLQMNSLKPEDTAVYYCAADVNYYQHRLYYWGQGTQVTVSS”, the “polyreactivity (PSR sort gate)” value is reported as “low polyreactivity”.

As to “QVQLVESGGGLVQAGGSLRLSCAASGSIFFDGNAMGWYRQAPGKERELVAAISVSGGSTYYADSVKGRFTISRDYAKTTVYLQINRLKPEDTAVYDCAKYPSKSYVPGDYWGQGTQVTVSS”, the “polyreactivity (PSR sort gate)” value is “low polyreactivity”.

In the case of “QVQLVESGGGLVQAGGSLRLSCAASGSIFFFYVMGWYRQAPGKERELVAAINNGGSTNYADSVKGRFTISRDNAKNTVYLQMNSLKPEDTAVYYCAADSITSKNQGLDYDYWGQGTQVTVSS”, the “polyreactivity (PSR sort gate)” value was “low polyreactivity”.

The values above are taken from the nanobody polyreactivity screen of Harvey et al. (2022).
